Source: publication PMC4725817 (Scientific Reports, 2016)

Key:
[1] = molecular target: T1, EBOV glycoprotein lacking the transmembrane domain (Kikwit) (Zaire ebolavirus, Kikwit-95, UniProt P87666); test: ELISA; conditions: both partners purified
[2] = molecular target: T1, EBOV glycoprotein lacking the …; test: cell-based or functional assay

T1 sequence (P87666 33-650): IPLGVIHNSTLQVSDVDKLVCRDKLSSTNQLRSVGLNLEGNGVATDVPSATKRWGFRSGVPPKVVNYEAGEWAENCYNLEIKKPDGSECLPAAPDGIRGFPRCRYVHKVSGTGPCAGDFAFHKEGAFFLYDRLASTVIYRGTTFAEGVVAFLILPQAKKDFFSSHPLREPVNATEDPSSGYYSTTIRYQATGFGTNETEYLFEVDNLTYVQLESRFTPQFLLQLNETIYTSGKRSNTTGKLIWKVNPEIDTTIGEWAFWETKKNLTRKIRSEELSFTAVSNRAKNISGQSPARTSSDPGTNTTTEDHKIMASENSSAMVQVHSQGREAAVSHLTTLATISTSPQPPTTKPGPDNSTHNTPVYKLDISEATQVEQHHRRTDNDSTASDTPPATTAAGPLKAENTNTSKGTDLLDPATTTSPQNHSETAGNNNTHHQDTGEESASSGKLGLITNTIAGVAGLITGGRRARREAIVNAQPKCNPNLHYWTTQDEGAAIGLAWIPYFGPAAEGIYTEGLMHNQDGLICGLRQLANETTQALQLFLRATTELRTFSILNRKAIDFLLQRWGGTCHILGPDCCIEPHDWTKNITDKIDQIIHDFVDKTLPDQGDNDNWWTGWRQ

B1: KZ52 (human EBOV mAb, monospecific IgG1) (antibody, V domains shown)
VH: EVQLLESGGGLVKPGGSLRLSCAASGFTLINYRMNWVRQAPGKGLEWVSSISSSSSYIHYADSVKGRFTISRDNAENSLYLQMNSLRAEDTAVYYCVREGPRATGYSMADVFDIWGQGTMVTVSS
VL: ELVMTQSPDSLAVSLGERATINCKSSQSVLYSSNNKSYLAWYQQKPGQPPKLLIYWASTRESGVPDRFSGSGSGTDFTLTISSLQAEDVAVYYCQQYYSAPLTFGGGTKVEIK
notes: also called KZ52 IgG1; monospecific KZ52
EC50 [1]: 0.01 nM | IC50 of neutralisation of VSV-GP_(EBOV), infection of Vero cells (eGFP) [2]: 2.7 nM
